Experimental data: patent publication US20220293215A1
Read-outs that look alike come from different tables or passages of the source.

T1: I-A^b (MHCII) of murine bone marrow-derived dendritic cells from C57BL/6J mice (mouse), P14434
T1 chain 1: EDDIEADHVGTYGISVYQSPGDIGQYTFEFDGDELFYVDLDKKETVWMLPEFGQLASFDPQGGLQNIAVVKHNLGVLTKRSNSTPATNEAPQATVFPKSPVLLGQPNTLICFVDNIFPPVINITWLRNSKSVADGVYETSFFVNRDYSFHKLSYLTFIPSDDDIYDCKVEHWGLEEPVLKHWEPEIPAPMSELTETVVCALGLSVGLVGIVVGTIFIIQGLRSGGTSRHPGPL
T1 chain 2: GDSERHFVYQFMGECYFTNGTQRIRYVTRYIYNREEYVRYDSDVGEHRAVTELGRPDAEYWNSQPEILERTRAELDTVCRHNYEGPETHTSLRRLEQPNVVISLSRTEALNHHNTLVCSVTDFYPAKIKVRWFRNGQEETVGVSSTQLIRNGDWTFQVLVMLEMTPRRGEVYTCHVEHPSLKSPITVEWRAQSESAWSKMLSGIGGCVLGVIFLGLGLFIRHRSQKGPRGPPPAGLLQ


Experiments:
[1] = target: T1, I-A^b (MHCII) of murine bone …; assay: MHCII peptidomics: Y3P IP of peptide-MHCII from BMDCs exposed to live Listeria, iTRAQ LC-MS/MS; conditions: scale: log2 fold change, Listeria 6 hr versus 10 min
[2] = target: T1, I-A^b (MHCII) of murine bone …; conditions: scale: log2 fold change, Listeria 6 hr versus 10 min

Row | Binder | logFC [1] | logFC [2]
1 | WNEKYAQAYPNVS (modifications not checked) | 1.38 | 
2 | WNEKYAQAYPNVSAKI (modifications not checked) | 1.2 | 
3 | VERWNEKYAQAYPNVS (modifications not checked) | 0.285 | 
4 | ERWNEKYAQAYPNVS (modifications not checked) | 0.207 | 
5 | ESVYLSAQKENPRLFAKIETF (modifications not checked) [Listeria peptide …n… (lmo1574 (dnaE))] |  | 0.595
